The target of test [1] is mKO-^MalFNTPBP2 (E. coli). As to the kind of experiment: FRET or BRET; three-plasmid FRET in LMC500 cells; third plasmid expresses non-fused MreCD. A general note: Bioluminescence resonance energy transfer reports proximity on the nanometre scale.
Test [2] has as its target mKO-^MalFNTPBP2 (E. coli). As to the kind of experiment: FRET or BRET; two-plasmid spectral FRET in E. coli LMC500 cells; mCherry fusion as acceptor, mKO fusion as donor; Gb4 medium, steady state at 28 C, 15 uM IPTG for two mass doublings, FAGA-fixed; acceptor FRET efficiency (EfA) by spectral unmixing.
The target in test [3] is mKO-^MalFNTPBP2 (E. coli). The experiment in a line: FRET or BRET; three-plasmid FRET in LMC500 cells; third plasmid expresses non-fused MreC.
Test [4] concerns the target mKO-^MalFNTPBP2 (E. coli). As to the kind of experiment: FRET or BRET; three-plasmid FRET in LMC500 cells; third plasmid: empty pSG4K5 vector.
Test [5] concerns the target mKO-^MalFNTPBP2 (E. coli). As to the kind of experiment: FRET or BRET; two-plasmid FRET in LMC500 cells; mCherry-MreC and non-fused MreD co-expressed from one plasmid (mCh-MreCD), mKO fusion as donor.
Test [6] has as its target mKO-^MalFNTPBP2 (E. coli). As to the kind of experiment: FRET or BRET; as the two-plasmid FRET, cells treated with mecillinam (2 mg/L) for two mass doublings.

Take “PBP2 (wild type), fused to mKO or to mCherry (from UniProt P0AD65 1-633) (enzyme)”: the EfA (acceptor FRET efficiency) in test [1] was determined as 8.7%; in test [2], 10.5%; in test [3], 9.8%; in test [4] it was 9.4%.
On to “mCh-MreC (from UniProt P16926 1-367) (natural protein)”, for which the EfA (acceptor FRET efficiency) in test [5] and in test [2] was 5.4% in each case.
As for “RodA (wild type), fused to mCherry or to mKO (from UniProt P0ABG7 1-370) (enzyme)”, the EfA (acceptor FRET efficiency) in test [1] worked out at 5.5%; in test [2] it was 11.8%; in test [3], 4.2%; in test [6], 6.2%; in test [4], 7.6%.
